Test in all cases: FP displacement
The target in one test is T1, ROBO1 (Homo sapiens (Human), UniProt Q9Y6N7).
T1 chain: AQSKTQLEVRPV

The target of a further test is T2, USP19 (Homo sapiens (Human), UniProt O94966).
T2 chain: PFQPGRMALESQSPG

In the next test the target is T3, CEP192 (Homo sapiens (Human), UniProt Q8TEP8).
T3 chain: LQPSSKASLESTSDL

The target of a further test is T4, IRAG1 (Homo sapiens (Human), UniProt Q9Y6F6).
T4 chain: TNSSGKMALNSPQPG

A further test has as its target T5, HIF1A (Homo sapiens (Human), UniProt Q16665).
T5 chain: PYIPMDDDFQLRSFDQLS

In a further test the target is T6, MFSD2B (Homo sapiens (Human), UniProt A6NFX1).
T6 chain: DVVDDFQLQHRHGPG

A further test deals with T7, CCDC88B (Homo sapiens (Human), UniProt A6NC98).
T7 chain: QLEEELFQLRQGPAG

B1: USP33 (protein)
chain: RNHCPHLDSVGEITKEDLIQKSLGTCQDCKVQGPNLWACLENRCSYVGCGESQVDHSTIHSQETKHYLTVNLTTLRVWCYACSKEVFLDRKLGTQ
The Kd is a measure of binding affinity in units of concentration. Consider B1, for which the Kd was 14 µM with ROBO1, 40.6 µM with USP19, 14.1 µM with CEP192 and 7.86 µM with IRAG1.

B2: USP33 (protein)
chain: HLYICHTCQIEAEKIEKRRKTELEIFIRLNRAFQKEDSPATFYCISMQWFREWESFVKGKDGDPPGPIDNTKIAVTKCGNVMLRQGADSGQISEETWNFLQSIYGGGPEVILRPPV
B2: the equilibrium dissociation constant (Kd) in the test with HIF1A worked out at 1500 nM; with MFSD2B, 750 nM; with CCDC88B, 40.1 µM.

Values taken from article PMC13376213 (2026).
